Sequences and labels used below:
B1: GpH7-A5/GpH7-B3 variant S298_07I/GpL16-k0 (He Ab) (antibody, human IgG1, kappa)
heavy 1: not shown
heavy 2: not shown
light: DIVMTQSPLSLPVTPGEPASISCQASESLVHSNRNTYLHWYLQKPGQSPQLLIYKVSNRFSGVPDRFSGSGSGTDFTLKISRVEAEDVGVYYCSQNTHVPPTFGQGTKVEIERTVAAPSVFIFPPSDEQLKSGTASVVCLLNNFYPREAKVQWKVDNALQSGNSQESVTEQDSKDSTYSLSSTLTLSKADYEKHKVYACEVTHQGLSSPVTKSFNRGEC
notes: He Ab: alteration only in the GpH7-B3 chain
B2: GpH7-A5/GpH7-B3 variant S239_09D/GpL16-k0 (He Ab) (antibody, human IgG1, kappa)
heavy 1: not shown
heavy 2: not shown
light: B1 light
notes: as for B1
B3: GpH7-A5/GpH7-B3 variant Q295_13S/GpL16-k0 (He Ab) (antibody, human IgG1, kappa)
heavy 1: not shown
heavy 2: not shown
light: B1 light
notes: as for B1
B4: GpH7-A5/GpH7-B3 variant S324_19Q/GpL16-k0 (He Ab) (antibody, human IgG1, kappa)
heavy 1: not shown
heavy 2: not shown
light: B1 light
notes: as for B1
B5: GpH7-A5/GpH7-B3 variant S324_02A/GpL16-k0 (He Ab) (antibody, human IgG1, kappa)
heavy 1: not shown
heavy 2: not shown
light: B1 light
notes: as for B1
B6: GpH7-A5/GpH7-B3 variant S298_10E/GpL16-k0 (He Ab) (antibody, human IgG1, kappa)
heavy 1: not shown
heavy 2: not shown
light: B1 light
notes: as for B1
B7: GpH7-A5/GpH7-B3 variant S298_03V/GpL16-k0 (He Ab) (antibody, human IgG1, kappa)
heavy 1: not shown
heavy 2: not shown
light: B1 light
notes: as for B1
B8: GpH7-A5/GpH7-B3 variant S239_01G/GpL16-k0 (He Ab) (antibody, human IgG1, kappa)
heavy 1: not shown
heavy 2: not shown
light: B1 light
notes: as for B1
B9: GpH7-A5/GpH7-B3 variant S324_20W/GpL16-k0 (He Ab) (antibody, human IgG1, kappa)
heavy 1: not shown
heavy 2: not shown
light: B1 light
notes: as for B1
B10: GpH7-A5/GpH7-B3 variant S298_19Q/GpL16-k0 (He Ab) (antibody, human IgG1, kappa)
heavy 1: not shown
heavy 2: not shown
light: B1 light
notes: as for B1
B11: GpH7-A5/GpH7-B3 variant Q295_18N/GpL16-k0 (He Ab) (antibody, human IgG1, kappa)
heavy 1: not shown
heavy 2: not shown
light: B1 light
notes: as for B1
B12: GpH7-A5/GpH7-B3 variant S337_03V/GpL16-k0 (He Ab) (antibody, human IgG1, kappa)
heavy 1: not shown
heavy 2: not shown
light: B1 light
notes: as for B1
B13: GpH7-A5/GpH7-B3 variant S267_03V/GpL16-k0 (He Ab) (antibody, human IgG1, kappa)
heavy 1: not shown
heavy 2: not shown
light: B1 light
notes: as for B1
B14: GpH7-A5/GpH7-B3 variant S324_03V/GpL16-k0 (He Ab) (antibody, human IgG1, kappa)
heavy 1: not shown
heavy 2: not shown
light: B1 light
notes: as for B1
B15: GpH7-A5/GpH7-B3 variant S298_15Y/GpL16-k0 (He Ab) (antibody, human IgG1, kappa)
heavy 1: not shown
heavy 2: not shown
light: B1 light
notes: as for B1
B16: GpH7-A5/GpH7-B3 variant S298_16H/GpL16-k0 (He Ab) (antibody, human IgG1, kappa)
heavy 1: not shown
heavy 2: not shown
light: B1 light
notes: as for B1
B17: GpH7-A5/GpH7-B3 variant S337_02A/GpL16-k0 (He Ab) (antibody, human IgG1, kappa)
heavy 1: not shown
heavy 2: not shown
light: B1 light
notes: as for B1
B18: GpH7-A5/GpH7-B3 variant S298_08L/GpL16-k0 (He Ab) (antibody, human IgG1, kappa)
heavy 1: not shown
heavy 2: not shown
light: B1 light
notes: as for B1
B19: GpH7-A5/GpH7-B3 variant S337_01G/GpL16-k0 (He Ab) (antibody, human IgG1, kappa)
heavy 1: not shown
heavy 2: not shown
light: B1 light
notes: as for B1
B20: GpH7-A5/GpH7-B3 variant S267_01G/GpL16-k0 (He Ab) (antibody, human IgG1, kappa)
heavy 1: not shown
heavy 2: not shown
light: B1 light
notes: as for B1
B21: GpH7-A5/GpH7-B3 variant S267_09D/GpL16-k0 (He Ab) (antibody, human IgG1, kappa)
heavy 1: not shown
heavy 2: not shown
light: B1 light
notes: as for B1
B22: GpH7-A5/GpH7-B3 variant S298_14T/GpL16-k0 (He Ab) (antibody, human IgG1, kappa)
heavy 1: not shown
heavy 2: not shown
light: B1 light
notes: as for B1
B23: GpH7-A5/GpH7-B3 variant S298_18N/GpL16-k0 (He Ab) (antibody, human IgG1, kappa)
heavy 1: not shown
heavy 2: not shown
light: B1 light
notes: as for B1
B24: GpH7-A5/GpH7-B3 variant Q295_14T/GpL16-k0 (He Ab) (antibody, human IgG1, kappa)
heavy 1: not shown
heavy 2: not shown
light: B1 light
notes: as for B1
B25: GpH7-A5/GpH7-B3 variant S324_08L/GpL16-k0 (He Ab) (antibody, human IgG1, kappa)
heavy 1: not shown
heavy 2: not shown
light: B1 light
notes: as for B1
B26: GpH7-A5/GpH7-B3 variant S324_14T/GpL16-k0 (He Ab) (antibody, human IgG1, kappa)
heavy 1: not shown
heavy 2: not shown
light: B1 light
notes: as for B1
B27: GpH7-A5/GpH7-B3 variant S267_02A/GpL16-k0 (He Ab) (antibody, human IgG1, kappa)
heavy 1: not shown
heavy 2: not shown
light: B1 light
notes: as for B1
B28: GpH7-B3 variant S298_11K/GpL16-k0 (antibody, human IgG1, kappa)
heavy: not shown
light: B1 light
notes: mutation in both H chains; also called Ho Ab S298_11K; S298K
B29: GpH7-B3 variant S239_19Q/GpL16-k0 (antibody, human IgG1, kappa)
heavy: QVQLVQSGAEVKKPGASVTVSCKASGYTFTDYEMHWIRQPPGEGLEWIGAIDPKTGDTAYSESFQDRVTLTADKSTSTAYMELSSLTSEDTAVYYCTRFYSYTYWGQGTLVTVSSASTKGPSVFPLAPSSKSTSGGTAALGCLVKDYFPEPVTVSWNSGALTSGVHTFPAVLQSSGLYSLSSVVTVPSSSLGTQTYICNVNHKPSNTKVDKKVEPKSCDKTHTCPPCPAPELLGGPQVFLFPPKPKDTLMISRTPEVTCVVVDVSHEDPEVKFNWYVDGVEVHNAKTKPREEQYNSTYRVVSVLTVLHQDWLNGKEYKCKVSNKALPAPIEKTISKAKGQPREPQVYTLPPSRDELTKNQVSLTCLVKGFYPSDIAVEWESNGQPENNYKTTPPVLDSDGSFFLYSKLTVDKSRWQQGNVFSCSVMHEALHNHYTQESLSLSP
light: B1 light
notes: mutation in both H chains; also called Ho Ab S239_19Q; S239Q
B30: GpH7-B3 variant S239_09D/GpL16-k0 (antibody, human IgG1, kappa)
heavy: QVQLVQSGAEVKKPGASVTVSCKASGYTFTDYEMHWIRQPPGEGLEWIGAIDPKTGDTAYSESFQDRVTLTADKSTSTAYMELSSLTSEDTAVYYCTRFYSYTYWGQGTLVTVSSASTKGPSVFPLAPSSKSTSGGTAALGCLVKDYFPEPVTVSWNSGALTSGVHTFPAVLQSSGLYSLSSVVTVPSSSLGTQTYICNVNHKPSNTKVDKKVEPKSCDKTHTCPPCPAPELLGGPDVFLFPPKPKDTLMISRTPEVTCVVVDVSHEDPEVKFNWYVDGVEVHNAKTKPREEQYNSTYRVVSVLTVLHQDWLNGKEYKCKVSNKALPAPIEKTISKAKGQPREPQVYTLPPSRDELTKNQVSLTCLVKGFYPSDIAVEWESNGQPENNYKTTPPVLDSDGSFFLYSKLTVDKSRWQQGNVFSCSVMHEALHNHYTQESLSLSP
light: B1 light
notes: mutation in both H chains; also called Ho Ab S239_09D; S239D
B31: GpH7-B3 variant S239_14T/GpL16-k0 (antibody, human IgG1, kappa)
heavy: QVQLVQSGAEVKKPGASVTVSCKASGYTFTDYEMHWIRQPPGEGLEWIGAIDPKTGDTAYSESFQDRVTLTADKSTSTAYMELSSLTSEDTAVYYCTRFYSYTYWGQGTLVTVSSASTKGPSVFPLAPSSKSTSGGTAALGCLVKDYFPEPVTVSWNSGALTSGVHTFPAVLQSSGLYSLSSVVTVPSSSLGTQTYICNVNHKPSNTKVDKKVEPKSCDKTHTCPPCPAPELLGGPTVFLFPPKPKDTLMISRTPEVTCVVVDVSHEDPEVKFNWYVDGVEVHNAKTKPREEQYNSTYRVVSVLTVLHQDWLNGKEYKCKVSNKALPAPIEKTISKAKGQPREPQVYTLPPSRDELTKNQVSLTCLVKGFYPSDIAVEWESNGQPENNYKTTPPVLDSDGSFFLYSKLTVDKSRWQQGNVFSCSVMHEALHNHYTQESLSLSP
light: B1 light
notes: mutation in both H chains; also called Ho Ab S239_14T; S239T
B32: GpH7-B3 variant S298_02A/GpL16-k0 (antibody, human IgG1, kappa)
heavy: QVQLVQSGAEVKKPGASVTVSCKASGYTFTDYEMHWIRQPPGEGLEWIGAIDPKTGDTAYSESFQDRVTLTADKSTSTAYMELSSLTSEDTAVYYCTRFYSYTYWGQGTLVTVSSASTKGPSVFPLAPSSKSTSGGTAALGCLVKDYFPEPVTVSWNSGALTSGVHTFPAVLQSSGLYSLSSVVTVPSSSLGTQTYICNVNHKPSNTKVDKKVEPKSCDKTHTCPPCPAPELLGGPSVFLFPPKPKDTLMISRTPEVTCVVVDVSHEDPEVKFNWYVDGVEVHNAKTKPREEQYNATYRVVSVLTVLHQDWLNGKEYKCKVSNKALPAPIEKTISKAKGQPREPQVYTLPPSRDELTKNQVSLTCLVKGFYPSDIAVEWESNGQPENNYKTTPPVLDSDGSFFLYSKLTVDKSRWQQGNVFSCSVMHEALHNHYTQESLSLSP
light: B1 light
notes: mutation in both H chains; also called Ho Ab S298_02A; S298A
B33: GpH7-B3 variant S267_03V/GpL16-k0 (antibody, human IgG1, kappa)
heavy: not shown
light: B1 light
notes: mutation in both H chains; also called Ho Ab S267_03V; S267V
B34: GpH7-B3 variant S267_09D/GpL16-k0 (antibody, human IgG1, kappa)
heavy: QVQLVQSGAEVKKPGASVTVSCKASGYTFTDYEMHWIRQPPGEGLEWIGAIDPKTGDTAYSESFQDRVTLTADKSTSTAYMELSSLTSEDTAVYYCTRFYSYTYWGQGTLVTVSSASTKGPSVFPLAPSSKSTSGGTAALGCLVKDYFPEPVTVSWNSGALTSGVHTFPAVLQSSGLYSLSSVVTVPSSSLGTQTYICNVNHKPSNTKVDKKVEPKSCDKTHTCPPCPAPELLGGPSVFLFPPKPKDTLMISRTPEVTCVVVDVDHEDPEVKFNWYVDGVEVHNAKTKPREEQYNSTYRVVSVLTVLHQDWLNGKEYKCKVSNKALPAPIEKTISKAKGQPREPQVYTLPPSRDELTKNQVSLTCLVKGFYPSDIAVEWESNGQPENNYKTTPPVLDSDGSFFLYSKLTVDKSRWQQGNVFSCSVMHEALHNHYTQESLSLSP
light: B1 light
notes: mutation in both H chains; also called Ho Ab S267_09D; S267D
B35: GpH7-B3 variant S267_08L/GpL16-k0 (antibody, human IgG1, kappa)
heavy: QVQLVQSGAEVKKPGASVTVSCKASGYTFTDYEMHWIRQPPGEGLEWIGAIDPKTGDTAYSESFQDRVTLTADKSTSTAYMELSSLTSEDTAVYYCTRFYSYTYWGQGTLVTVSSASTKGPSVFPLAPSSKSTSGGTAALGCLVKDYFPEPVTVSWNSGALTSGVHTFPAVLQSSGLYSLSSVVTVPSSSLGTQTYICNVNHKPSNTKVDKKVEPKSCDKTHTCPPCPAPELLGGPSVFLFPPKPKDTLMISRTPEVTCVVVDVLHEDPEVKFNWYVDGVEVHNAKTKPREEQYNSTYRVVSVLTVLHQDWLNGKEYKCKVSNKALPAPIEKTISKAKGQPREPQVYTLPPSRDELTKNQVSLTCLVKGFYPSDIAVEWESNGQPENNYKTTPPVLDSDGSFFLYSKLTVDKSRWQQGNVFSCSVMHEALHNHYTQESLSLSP
light: B1 light
notes: mutation in both H chains; also called Ho Ab S267_08L; S267L
B36: GpH7-B3 variant S267_01G/GpL16-k0 (antibody, human IgG1, kappa)
heavy: not shown
light: B1 light
notes: mutation in both H chains; also called Ho Ab S267_01G; S267G
B37: GpH7-B3 variant S267_02A/GpL16-k0 (antibody, human IgG1, kappa)
heavy: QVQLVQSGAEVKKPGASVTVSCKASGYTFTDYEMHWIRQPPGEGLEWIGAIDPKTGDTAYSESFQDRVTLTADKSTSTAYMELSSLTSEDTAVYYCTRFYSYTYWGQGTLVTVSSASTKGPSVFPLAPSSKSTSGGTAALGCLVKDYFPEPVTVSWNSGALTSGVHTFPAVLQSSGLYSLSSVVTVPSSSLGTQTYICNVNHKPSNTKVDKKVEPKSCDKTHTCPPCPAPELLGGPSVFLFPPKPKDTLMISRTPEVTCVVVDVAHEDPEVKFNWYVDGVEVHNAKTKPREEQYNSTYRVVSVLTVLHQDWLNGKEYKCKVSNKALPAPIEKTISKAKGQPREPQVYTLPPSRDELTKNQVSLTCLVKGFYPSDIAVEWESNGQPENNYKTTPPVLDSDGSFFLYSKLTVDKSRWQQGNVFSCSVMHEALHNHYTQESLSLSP
light: B1 light
notes: mutation in both H chains; also called Ho Ab S267_02A; S267A
B38: GpH7-B3 variant S298_01G/GpL16-k0 (antibody, human IgG1, kappa)
heavy: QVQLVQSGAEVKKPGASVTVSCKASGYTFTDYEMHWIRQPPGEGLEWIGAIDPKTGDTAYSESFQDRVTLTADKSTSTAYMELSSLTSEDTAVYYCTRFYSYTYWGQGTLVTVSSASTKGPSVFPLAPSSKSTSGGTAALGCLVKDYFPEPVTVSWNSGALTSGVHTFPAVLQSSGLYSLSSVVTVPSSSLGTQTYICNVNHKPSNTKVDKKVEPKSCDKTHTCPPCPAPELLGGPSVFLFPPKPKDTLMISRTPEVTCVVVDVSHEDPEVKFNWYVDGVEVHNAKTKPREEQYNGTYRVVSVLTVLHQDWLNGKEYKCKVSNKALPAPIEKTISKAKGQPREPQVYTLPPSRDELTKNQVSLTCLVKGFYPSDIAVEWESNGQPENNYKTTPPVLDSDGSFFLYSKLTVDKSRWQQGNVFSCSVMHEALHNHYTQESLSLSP
light: B1 light
notes: mutation in both H chains; also called Ho Ab S298_01G; S298G
B39: GpH7-B3 variant S239_18N/GpL16-k0 (antibody, human IgG1, kappa)
heavy: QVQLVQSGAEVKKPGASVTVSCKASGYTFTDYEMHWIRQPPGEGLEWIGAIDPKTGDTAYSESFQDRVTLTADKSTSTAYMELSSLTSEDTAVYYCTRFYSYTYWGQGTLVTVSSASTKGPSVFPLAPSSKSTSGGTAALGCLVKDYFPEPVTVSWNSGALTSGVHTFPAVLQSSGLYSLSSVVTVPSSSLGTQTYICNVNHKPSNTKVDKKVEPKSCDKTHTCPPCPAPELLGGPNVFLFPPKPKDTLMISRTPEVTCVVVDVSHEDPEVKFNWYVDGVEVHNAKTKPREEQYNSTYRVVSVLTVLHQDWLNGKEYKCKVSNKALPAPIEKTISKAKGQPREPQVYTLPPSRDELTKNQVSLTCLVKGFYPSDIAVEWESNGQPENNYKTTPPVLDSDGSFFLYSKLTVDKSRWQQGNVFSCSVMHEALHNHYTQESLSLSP
light: B1 light
notes: mutation in both H chains; also called Ho Ab S239_18N; S239N
B40: GpH7-B3 variant S267_16H/GpL16-k0 (antibody, human IgG1, kappa)
heavy: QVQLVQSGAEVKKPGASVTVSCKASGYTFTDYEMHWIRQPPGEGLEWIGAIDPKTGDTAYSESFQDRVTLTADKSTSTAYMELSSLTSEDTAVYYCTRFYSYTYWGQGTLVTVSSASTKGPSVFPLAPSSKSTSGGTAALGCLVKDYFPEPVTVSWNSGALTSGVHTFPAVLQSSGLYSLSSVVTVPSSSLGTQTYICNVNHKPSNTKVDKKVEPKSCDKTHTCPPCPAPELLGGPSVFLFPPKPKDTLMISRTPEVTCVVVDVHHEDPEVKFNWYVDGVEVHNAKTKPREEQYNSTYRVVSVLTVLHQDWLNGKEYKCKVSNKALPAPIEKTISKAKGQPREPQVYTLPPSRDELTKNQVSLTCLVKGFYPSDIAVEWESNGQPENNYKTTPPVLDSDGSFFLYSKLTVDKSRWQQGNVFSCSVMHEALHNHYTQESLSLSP
light: B1 light
notes: mutation in both H chains; also called Ho Ab S267_16H; S267H

40 molecules from patent US20180155451A1 (published 2018) can be followed below.

The target in the first test is T1, FcγRIa extracellular domain with C-terminal His tag (human, UniProt P12314 16-292).
T1 construct: extracellular domain; Expressed in FreeStyle293 cells; analyte in Biacore; also called FcgRI; FcgRIa
The experiment in a line: SPR Biacore, antibody captured, FcγRIa analyte; vs GpH7-A5/GpH7-B3/GpL16-k0 = 100. In general terms: In SPR one partner is held on a chip, and binding of the other changes the refractive index at the surface.
T1 sequence (P12314 16-292): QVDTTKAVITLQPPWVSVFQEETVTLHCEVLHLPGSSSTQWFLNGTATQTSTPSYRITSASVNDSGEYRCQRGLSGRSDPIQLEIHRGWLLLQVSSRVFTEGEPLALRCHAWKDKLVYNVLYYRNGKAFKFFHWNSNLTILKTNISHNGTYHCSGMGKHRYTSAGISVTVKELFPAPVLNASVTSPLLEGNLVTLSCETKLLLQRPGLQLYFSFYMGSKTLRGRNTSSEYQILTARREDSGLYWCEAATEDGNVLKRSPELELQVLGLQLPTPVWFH
As to B1, the He/Con_1a was 107 relative (control = 100).

As to B2, the He/Con_1a is 101 relative (control = 100).

Regarding B3, the He/Con_1a is 102 relative (control = 100).

On to B4, for which the He/Con_1a is 112 relative (control = 100).

As for B5, the He/Con_1a was 103 relative (control = 100).

As for B6, the He/Con_1a was 108 relative (control = 100).

As to B7, the He/Con_1a is 110 relative (control = 100).

On to B8, for which the He/Con_1a was 101 relative (control = 100).

As to B9, the He/Con_1a is 114 relative (control = 100).

Regarding B10, the He/Con_1a was 109 relative (control = 100).

With B11, the He/Con_1a is 102 relative (control = 100).

Turning to B12, the He/Con_1a is 107 relative (control = 100).

For B13, the He/Con_1a is 106 relative (control = 100).

With B14, the He/Con_1a was 104 relative (control = 100).

Consider B15, for which the He/Con_1a was 107 relative (control = 100).

Take B16: the He/Con_1a is 109 relative (control = 100).

Consider B17, for which the He/Con_1a is 106 relative (control = 100).

As to B18, the He/Con_1a is 107 relative (control = 100).

As to B19, the He/Con_1a was 107 relative (control = 100).

Take B20: the He/Con_1a is 103 relative (control = 100).

Turning to B21, the He/Con_1a is 110 relative (control = 100).

Take B22: the He/Con_1a was 107 relative (control = 100).

In the case of B23, the He/Con_1a is 108 relative (control = 100).

On to B24, for which the He/Con_1a is 103 relative (control = 100).

As to B25, the He/Con_1a is 103 relative (control = 100).

Consider B26, for which the He/Con_1a is 121 relative (control = 100).

Turning to B27, the He/Con_1a is 109 relative (control = 100).

In another test the target is T2, FcγRIa extracellular domain with C-terminal His tag (human, UniProt P12314 16-292).
T2 construct: extracellular domain; also called FcgRI; CD64; not shown: His tag at the C terminus
The test can be described thus: SPR Biacore, relative FcγRIa binding vs GpH7-B3/GpL16-k0.
T2 sequence (P12314 16-292): as above
Consider B28, for which the Ho/Con_1a was 90.4 % of HoCon Ab (=100).

For the molecule B29, the Ho/Con_1a was 93.4 % of HoCon Ab (=100).

For B30, the Ho/Con_1a is 101 % of HoCon Ab (=100).

With B31, the Ho/Con_1a was 101 % of HoCon Ab (=100).

As to B32, the Ho/Con_1a is 106 % of HoCon Ab (=100).

As to B33, the Ho/Con_1a is 102 % of HoCon Ab (=100).

For B34, the Ho/Con_1a was 106 % of HoCon Ab (=100).

As for B35, the Ho/Con_1a is 99.9 % of HoCon Ab (=100).

In the case of B36, the Ho/Con_1a was 102 % of HoCon Ab (=100).

Turning to B37, the Ho/Con_1a was 108 % of HoCon Ab (=100).

Consider B38, for which the Ho/Con_1a is 103 % of HoCon Ab (=100).

B39: the Ho/Con_1a is 97.9 % of HoCon Ab (=100).

Take B40: the Ho/Con_1a is 98.2 % of HoCon Ab (=100).
